Data taken from patent US20030018175A1.
One block for each molecule: values may come before it.

Biological target: human alpha-1-antitrypsin (Sigma) (human) (UniProt P01009)
Experiment: cell-based or functional assay

Sequence of UniProt P01009 (P01009 25-418 limits assumed): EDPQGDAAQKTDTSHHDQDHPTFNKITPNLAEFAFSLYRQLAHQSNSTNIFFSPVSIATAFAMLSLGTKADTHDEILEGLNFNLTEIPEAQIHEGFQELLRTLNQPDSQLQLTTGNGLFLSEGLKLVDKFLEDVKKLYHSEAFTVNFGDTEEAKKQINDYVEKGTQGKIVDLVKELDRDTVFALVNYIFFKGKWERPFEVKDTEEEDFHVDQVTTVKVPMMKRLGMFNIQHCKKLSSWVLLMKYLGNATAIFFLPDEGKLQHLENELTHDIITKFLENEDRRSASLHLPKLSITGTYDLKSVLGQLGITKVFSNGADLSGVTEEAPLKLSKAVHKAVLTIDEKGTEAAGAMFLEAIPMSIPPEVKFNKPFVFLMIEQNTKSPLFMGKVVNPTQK

- % residual amidolytic activity, 16.6 µM inhibitor, 20 h at 37 °C: 68%
- % residual amidolytic activity, 42.3 µM inhibitor, 20 h at 37 °C: 44%
Molecule: APC conjugate L386N+H388T (enzyme)

- % residual amidolytic activity, 16.6 µM inhibitor, 20 h at 37 °C: 9%
- % residual amidolytic activity, 42.3 µM inhibitor, 20 h at 37 °C: 2%
Molecule: APC variant M338A (control) (enzyme)

- % residual amidolytic activity, 16.6 µM inhibitor, 20 h at 37 °C: 21%
- % residual amidolytic activity, 42.3 µM inhibitor, 20 h at 37 °C: 1%
Molecule: APC variant D214A (control) (enzyme)

- % residual amidolytic activity, 16.6 µM inhibitor, 20 h at 37 °C: 90%
- % residual amidolytic activity, 42.3 µM inhibitor, 20 h at 37 °C: 77%
Molecule: APC conjugate D189N+K191T (enzyme)

- % residual amidolytic activity, 16.6 µM inhibitor, 20 h at 37 °C: 50%
- % residual amidolytic activity, 42.3 µM inhibitor, 20 h at 37 °C: 30%
Molecule: APC variant Y302N (enzyme)

- % residual amidolytic activity, 16.6 µM inhibitor, 20 h at 37 °C: 20%
- % residual amidolytic activity, 42.3 µM inhibitor, 20 h at 37 °C: 4%
Molecule: APC conjugate K217N+L219T (enzyme)

- % residual amidolytic activity, 16.6 µM inhibitor, 20 h at 37 °C: 62%
- % residual amidolytic activity, 42.3 µM inhibitor, 20 h at 37 °C: 53%
Molecule: APC variant K251N (enzyme)

- % residual amidolytic activity, 16.6 µM inhibitor, 20 h at 37 °C: 59%
- % residual amidolytic activity, 42.3 µM inhibitor, 20 h at 37 °C: 24%
Molecule: APC conjugate K191N+K193T (enzyme)

- % residual amidolytic activity, 16.6 µM inhibitor, 20 h at 37 °C: 62%
- % residual amidolytic activity, 42.3 µM inhibitor, 20 h at 37 °C: 34%
Molecule: APC variant S252N (enzyme)

- % residual amidolytic activity, 16.6 µM inhibitor, 20 h at 37 °C: 38%
- % residual amidolytic activity, 42.3 µM inhibitor, 20 h at 37 °C: 12%
Molecule: APC conjugate M338N (enzyme)

- % residual amidolytic activity, 16.6 µM inhibitor, 20 h at 37 °C: 12%
- % residual amidolytic activity, 42.3 µM inhibitor, 20 h at 37 °C: < 1%
Molecule: APC variant D189N+K191N (control) (enzyme)

- % residual amidolytic activity, 16.6 µM inhibitor, 20 h at 37 °C: 72%
- % residual amidolytic activity, 42.3 µM inhibitor, 20 h at 37 °C: 40%
Molecule: APC conjugate S336N+M338T (enzyme)

- % residual amidolytic activity, 16.6 µM inhibitor, 20 h at 37 °C: 7%
- % residual amidolytic activity, 42.3 µM inhibitor, 20 h at 37 °C: < 1%
Molecule: wild-type COS 7 APC (enzyme)

- % residual amidolytic activity, 16.6 µM inhibitor, 20 h at 37 °C: 28%
- % residual amidolytic activity, 42.3 µM inhibitor, 20 h at 37 °C: 5%
Molecule: APC variant S190N+K192T (enzyme)

- % residual amidolytic activity, 16.6 µM inhibitor, 20 h at 37 °C: 56%
- % residual amidolytic activity, 42.3 µM inhibitor, 20 h at 37 °C: 38%
Molecule: APC conjugate T253N+D255T (enzyme)

- % residual amidolytic activity, 16.6 µM inhibitor, 20 h at 37 °C: 80%
- % residual amidolytic activity, 42.3 µM inhibitor, 20 h at 37 °C: 81%
Molecule: APC conjugate D214N (enzyme)

- % residual amidolytic activity, 16.6 µM inhibitor, 20 h at 37 °C: 42%
- % residual amidolytic activity, 42.3 µM inhibitor, 20 h at 37 °C: 9%
Molecule: APC conjugate S305N+E307T (enzyme)

- % residual amidolytic activity, 16.6 µM inhibitor, 20 h at 37 °C: 10%
- % residual amidolytic activity, 42.3 µM inhibitor, 20 h at 37 °C: < 1%
Molecule: APC conjugate E307N+E309T (enzyme)

- % residual amidolytic activity, 16.6 µM inhibitor, 20 h at 37 °C: 10%
- % residual amidolytic activity, 42.3 µM inhibitor, 20 h at 37 °C: 2%
B1: wild-type plasma APC (enzyme)
chain: ANSFLEELRHSSLERECIEEICDFEEAKEIFQNVDDTLAFWSKHVDGDQCLVLPLEHPCASLCCGHGTCIDGIGSFSCDCRSGWEGRFCQREVSFLNCSLDNGGCTHYCLEEVGWRRCSCAPGYKLGDDLLQCHPAVKFPCGRPWKRMEKKRSHLLIDGKMTRRGDSPWQVVLLDSKKKLACGAVLIHPSWVLTAAHCMDESKKLLVRLGEYDLRRWEKWELDLDIKEVFVHPNYSKSTTDNDIALLHLAQPATLSQTIVPICLPDSGLAERELNQAGQETLVTGWGYHSSREKEAKRNRTFVLNFIKIPVVPHNECSEVMSNMVSENMLCAGILGDRQDACEGDSGGPMVASFHGTWFLVGLVSWGEGCGLLHNYGVYTKVSRYLDWIHGHIRDKEAPQKSWAP
modifications: two chains: light 1-155, heavy 170-419
